Experimental data as given in patent US20250152742A1, “COMPOSITIONS AND METHODS FOR NEUROLOGICAL DISEASES” (Trames Bio, Inc., priority 2022, published 2025).

Tests used:
[1] = tested on: engineered receptors and wild type nAchRa7 expressed in HEK293T cells; experiment: High throughput electrophysiology (IonFlux HT/Mercury automated patch clamp), EC50; assay type: cell-based, human
Protocol: To confirm the […] determined by plate reader as well as develop a better understanding of maximum current flow, the engineered receptors were subjected to high throughput electrophysiology system, as described below. For HEK293T studies, cDNAs encoding ion channels were cloned into pcDNA3.1 using standard recombination techniques. HEK293T cells from Clontech (Lenti-XTM 293T Cell Line) were cultured in DMEM supplemented with 10% FBS and 1% Pen/Strep to 40-50% confluence using standard cell culture protocols, transfected with ion channel plasmids at a concentration of 18 μg per 15 cm dish using Fugene 6, and grown for an additional 24 hours. Cells were then assayed on an electrophysiological system (IonFluxHT and/or Mercury, Fluxion Biosciences) in which dose-response relationships may be assessed through a microfluidics-based platform for establishing whole cell configurations. Ensemble plates were primed with extracellular buffer (140 mM NaCl, 5 mM KCl, 2 mM CaCl2), 1 mM MgCl2, 10 mM HEPES, and 10 mM glucose, pH 7.2 with NaOH, mOsm 310), intracellular buffer (145 mM CsCl, 2 mM CaCl2, 2 mM MgCl2, 10 mM HEPES, and 10 mM EGTA, pH 7.2 with CsOH, mOsm 305), as adapted from Lynagh and Lynch, and test compounds (stocks prepared fresh) diluted in extracellular buffer. Cells were then released from the plate with Accutase, centrifuged, resuspended in extracellular buffer, and loaded into Ensemble plates. Cells were then subjected to a standard protocol for priming, trapping, breaking, and establishing whole cell configuration, with cells held at −60 mV throughout the recording. After recording baseline, progressive doses of test compounds were applied using the IonFlux software to assess dose response relationships. Data were then analyzed off-line using custom Python scripts to convert data to .csv format, re-plot traces, and apply QC measurements to reject unstable recordings (i.e. thresholding based on access resistance and/or standard deviation in baseline, as well as artifact rejection). Peak currents were then calculated, and population data were fit using a 4-parameter logistic equation as described by the Hill Equation. Currents were measured on an automated patch clamp system (Fluxion Biosciences) following 1 second addition of drug and the EC50 values calculated are tabulated below in Table 22A and Table 22B below and Table 21A and Table 21B above (in Example 2).

[2] = tested on: engineered chimeric receptor SEQ ID NO: 33 and its mutants (human α7-nAChR ligand binding domain / human GlyRα1 ion pore domain) in Lenti-X 293T cells; experiment: YFP fluorescence quenching anion reporter plate reader assay (percent quench, EC50); assay type: cell-based; details: for YFP fluorescence quenching using Facinicline, 30 nM fac: ligand Facinicline 30 nM; for YFP fluorescence quenching using Facinicline, 300 nM fac: ligand Facinicline 300 nM; for YFP fluorescence quenching using Facinicline, 30 uM fac: ligand Facinicline 30 uM; for YFP fluorescence quenching using TC-6987, 1 uM tc6987: ligand TC-6987 1 uM; for YFP fluorescence quenching using TC-6987, 10 uM tc6987: ligand TC-6987 10 uM; for YFP fluorescence quenching using TC-6987, 500 uM tc6987: ligand TC-6987 500 uM; for YFP fluorescence quenching using CNL001 (percent quench): receptor named in row; for YFP fluorescence quenching using Varenicline, 3 nM var: ligand Varenicline 3 nM; for YFP fluorescence quenching using Varenicline, 30 nM var: ligand Varenicline 30 nM; for YFP fluorescence quenching using Varenicline, 300 nM var: ligand Varenicline 300 nM; for YFP fluorescence quenching using Varenicline, 500 nM var: ligand Varenicline 500 nM; for YFP fluorescence quenching using Varenicline, 1 uM var: ligand Varenicline 1 uM
How it was run: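 Lenti-X 293T cells co-expressing an anion-quenchable YFP were transiently transfected with receptor DNA, then ligand was added in NaI-substituted buffer (pH 7.2) after 30 min at 37 °C. Fluorescence was read about 2 min; percent quench = mean of last 10 s over 15 s pre-ligand baseline.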

[3] = 3 nM brd (TC-5619/Bradanicline)
[4] = 30 nM brd (TC-5619/Bradanicline)
[5] = 300 nM brd (TC-5619/Bradanicline)

B1: CODA536: engineered receptor: L131D, S172D in SEQ ID NO: 33 (protein)
chain: MRCSPGGVWLALAASLLHVSLQGEFQRKLYKELVKNYNPLERPVANDSQPLTVYFSLSLLQIMDVDEKNQVLTTNIWLQMSWTDHYLQWNVSEYPGVKTVRFPDGQIWKPDILLYNSADERFDATFHTNVDVNSSGHCQYLPPGIFKSSCPMDLKNFPMDVQTCKLKFGSWDYGGWSLDLQMQEADISGYIPNGEWDLVGIPGKRSERFYECCKEPYPDVTFTVTMRRRMGYYLIQMYIPSLLIVILSWISFWINMDAAPARVGLGITTVLTMTTQSSGSRASLPKVSYVKAIDIWMAVCLLFVFSALLEYAAVNFVSRQHKELLRFRRKRRHHKSPMLNLFQEDEAGEGRFNFSAYGMGPACLQAKDGISVKGANNSNTTNPPPAPSKSPEEMRKLFIQRAKKIDKISRIGFPMAFLIFNMFYWIIYKIVRREDVHNQ
modifications: synthetic sequence of chimeric LGIC
fold increased potency towards AZD-0328 compared to wild type control receptor ([1]; ligand AZD-0328): at least 10 fold | fold increased potency towards RG-3487 compared to wild type receptor ([1]; ligand RG-3487): at least 10 fold | YFP fluorescence quenching using TC-5619/Bradanicline (percent quench) ([2]; 1 nM brd (TC-5619/Bradanicline)): −1.24% | YFP fluorescence quenching using TC-5619/Bradanicline (percent quench) [2, 3]: 0.25% | YFP fluorescence quenching using TC-5619/Bradanicline (percent quench) ([2]; 10 nM brd (TC-5619/Bradanicline)): −2.57% | YFP fluorescence quenching using TC-6683 (percent quench) ([2]; 30 nM TC-6683): −22.285% | YFP fluorescence quenching using TC-5619/Bradanicline (percent quench) [2, 4]: 0.78% | YFP fluorescence quenching using ABT-126 (percent quench) ([2]; 50 nM abt (ABT-126)): −3.19% | YFP fluorescence quenching (percent quench) ([2]; 100 nM CNL002): 71.72% | YFP fluorescence quenching using ABT-126 (percent quench) ([2]; 100 nM abt (ABT-126)): 7.58% | YFP fluorescence quenching using AZD-0328 (percent quench) ([2]; 100 nM azd0328): 51.44% | YFP fluorescence quenching using TC-5619/Bradanicline (percent quench) ([2]; 100 nM brd (TC-5619/Bradanicline)): 4.51% | YFP fluorescence quenching using TC-6683 (percent quench) ([2]; 300 nM TC-6683): −23.926% | YFP fluorescence quenching using ABT-126 (percent quench) ([2]; 300 nM abt (ABT-126)): −1.65% | YFP fluorescence quenching using AZD-0328 (percent quench) ([2]; 300 nM azd0328): 77.12% | YFP fluorescence quenching using TC-5619/Bradanicline (percent quench) [2, 5]: 30.97% | YFP fluorescence quenching (percent quench) ([2]; 1 uM CNL002): 77.26% | YFP fluorescence quenching using ABT-126 (percent quench) ([2]; 1 uM abt (ABT-126)): 31.29% | YFP fluorescence quenching using TC-5619/Bradanicline (percent quench) ([2]; 1 uM brd (TC-5619/Bradanicline)): 44.41% | YFP fluorescence quenching using TC-6683 (percent quench) ([2]; 3 uM TC-6683): −20.514% | YFP fluorescence quenching (percent quench) ([2]; 10 uM ach (acetylcholine)): −12.91% | YFP fluorescence quenching (percent quench) ([2]; 30 uM CNL002): 77.5% | YFP fluorescence quenching using TC-6683 (percent quench) ([2]; 30 uM TC-6683): −3.078% | YFP fluorescence quenching using AZD-0328 (percent quench) ([2]; 30 uM azd0328): 79.26% | YFP fluorescence quenching using TC-6683 (percent quench) ([2]; 100 uM TC-6683): 7.37% | YFP fluorescence quenching (percent quench) ([2]; 100 uM ach (acetylcholine)): −20.88% | YFP fluorescence quenching (percent quench) ([2]; 1 mM ach (acetylcholine)): 79.85% | YFP fluorescence quenching (percent quench) ([2]; 3 mM ach (acetylcholine)): 79.98% | YFP fluorescence quenching using Facinicline, 30 nM fac [2]: 24.15 | YFP fluorescence quenching using Facinicline, 300 nM fac [2]: 80.17 | YFP fluorescence quenching using Facinicline, 10 uM fac ([2]; ligand Facinicline 10 uM): 81.34 | YFP fluorescence quenching using Facinicline, 30 uM fac [2]: 79.9 | YFP fluorescence quenching using TC-6987, 1 uM tc6987 [2]: −18.24 | YFP fluorescence quenching using TC-6987, 10 uM tc6987 [2]: −23.06 | YFP fluorescence quenching using TC-6987, 500 uM tc6987 [2]: −19.3

B2: CODA109: engineered receptor: S170T in SEQ ID NO: 33 (protein)
chain: MRCSPGGVWLALAASLLHVSLQGEFQRKLYKELVKNYNPLERPVANDSQPLTVYFSLSLLQIMDVDEKNQVLTTNIWLQMSWTDHYLQWNVSEYPGVKTVRFPDGQIWKPDILLYNSADERFDATFHTNVLVNSSGHCQYLPPGIFKSSCPMDLKNFPMDVQTCKLKFGTWSYGGWSLDLQMQEADISGYIPNGEWDLVGIPGKRSERFYECCKEPYPDVTFTVTMRRRMGYYLIQMYIPSLLIVILSWISFWINMDAAPARVGLGITTVLTMTTQSSGSRASLPKVSYVKAIDIWMAVCLLFVFSALLEYAAVNFVSRQHKELLRFRRKRRHHKSPMLNLFQEDEAGEGRFNFSAYGMGPACLQAKDGISVKGANNSNTTNPPPAPSKSPEEMRKLFIQRAKKIDKISRIGFPMAFLIFNMFYWIIYKIVRREDVHNQ
modifications: synthetic sequence of chimeric LGIC
YFP fluorescence quenching using CNL001 (percent quench) ([2]; 1 nM CNL001, first column so headed): 19.755% | YFP fluorescence quenching using CNL001 (percent quench) ([2]; 1 nM CNL001, second column so headed): 65.484% | YFP fluorescence quenching using TC-5619/Bradanicline (percent quench) [2, 3]: 70.58% | YFP fluorescence quenching using CNL001 (percent quench) ([2]; 10 nM CNL001, first column so headed): 79.024% | YFP fluorescence quenching using CNL001 (percent quench) ([2]; 10 nM CNL001, second column so headed): 81.563% | YFP fluorescence quenching using TC-5619/Bradanicline (percent quench) [2, 4]: 80.71% | YFP fluorescence quenching using CNL001 (percent quench) ([2]; 50 nM CNL001, first column so headed): 81.926% | YFP fluorescence quenching using CNL001 (percent quench) ([2]; 50 nM CNL001, second column so headed): 83.092% | YFP fluorescence quenching using ABT-126 (percent quench) ([2]; 50 nM abt (ABT-126)): 55.83% | YFP fluorescence quenching using CNL001 (percent quench) ([2]; 100 nM CNL001, first column so headed): 83% | YFP fluorescence quenching using CNL001 (percent quench) ([2]; 100 nM CNL001, second column so headed): 83.811% | YFP fluorescence quenching (percent quench) ([2]; 100 nM CNL002): 73.48% | YFP fluorescence quenching using ABT-126 (percent quench) ([2]; 100 nM abt (ABT-126)): 68.89% | YFP fluorescence quenching using AZD-0328 (percent quench) ([2]; 100 nM azd0328): 84.01% | YFP fluorescence quenching using ABT-126 (percent quench) ([2]; 300 nM abt (ABT-126)): 72.52% | YFP fluorescence quenching using AZD-0328 (percent quench) ([2]; 300 nM azd0328): 87.08% | YFP fluorescence quenching using TC-5619/Bradanicline (percent quench) [2, 5]: 80.66% | YFP fluorescence quenching using CNL001 (percent quench) ([2]; 1 uM CNL001, first column so headed): 81.834% | YFP fluorescence quenching using CNL001 (percent quench) ([2]; 1 uM CNL001, second column so headed): 83.858% | YFP fluorescence quenching (percent quench) ([2]; 1 uM CNL002): 70.03% | YFP fluorescence quenching using ABT-126 (percent quench) ([2]; 1 uM abt (ABT-126)): 70.96% | YFP fluorescence quenching (percent quench) ([2]; 10 uM ach (acetylcholine)): 82.91% | YFP fluorescence quenching (percent quench) ([2]; 30 uM ach (acetylcholine)): 82.53% | YFP fluorescence quenching using AZD-0328 (percent quench) ([2]; 30 uM azd0328): 87.27% | YFP fluorescence quenching (percent quench) ([2]; 50 uM ach (acetylcholine)): 82.11% | YFP fluorescence quenching (percent quench) ([2]; 100 uM ach (acetylcholine)): 83.68% | YFP fluorescence quenching (percent quench) ([2]; 1 mM ach (acetylcholine)): 69.89% | YFP fluorescence quenching (percent quench) ([2]; 3 mM ach (acetylcholine)): 78.12% | YFP fluorescence quenching using Facinicline, 30 nM fac [2]: 76.45 | YFP fluorescence quenching using Facinicline, 100 nM fac ([2]; ligand Facinicline 100 nM): 82.45 | YFP fluorescence quenching using Facinicline, 300 nM fac [2]: 71.09 | YFP fluorescence quenching using Facinicline, 30 uM fac [2]: 69.41 | YFP fluorescence quenching using TC-6987, 1 uM tc6987 [2]: 71.45 | YFP fluorescence quenching using TC-6987, 10 uM tc6987 [2]: 71.04 | YFP fluorescence quenching using TC-6987, 500 uM tc6987 [2]: 66.2 | YFP fluorescence quenching using Varenicline, 3 nM var ([2]; first column): −20.96 | YFP fluorescence quenching using Varenicline, 3 nM var ([2]; second column): −19.953 | YFP fluorescence quenching using Varenicline, 30 nM var ([2]; first column): −16.094 | YFP fluorescence quenching using Varenicline, 30 nM var ([2]; second column): −21.502 | YFP fluorescence quenching using Varenicline, 300 nM var ([2]; first column): 64.373 | YFP fluorescence quenching using Varenicline, 300 nM var ([2]; second column): 71.198 | YFP fluorescence quenching using Varenicline, 500 nM var ([2]; first column): 71.892 | YFP fluorescence quenching using Varenicline, 500 nM var ([2]; second column): 73.53 | YFP fluorescence quenching using Varenicline, 1 uM var ([2]; first column): 75.461 | YFP fluorescence quenching using Varenicline, 1 uM var ([2]; second column): 78.578
